B1: peptide HD2 (from tick evasin EVA4) / CCL4 (biotinylated, synthetic) (parent complex)
chain 1: EEDDYTAYAPLTCYFT
chain 2: APMGSDPPTACCFSYTARKLPRNFVVDYYETSSLCSQPAVVFQTKRSKQVCADPSESWVQEYVYDLELN

Variants of: B1

Row | Variant | enrichment
1 | chain 1 EEDDYTAYAPLTCYQT | 0.832 log2 (difference from the parental peptide)
2 | chain 1 EEDDYTAYAPLTCYHT | 0.795 log2 (difference from the parental peptide)
3 | chain 1 EEDDYTAYAPLTCYLT | 0.921 log2 (difference from the parental peptide)
4 | chain 1 EEDDYTAYAPLTCYRT | 0.256 log2 (difference from the parental peptide)
5 | chain 1 EEDDYTAYAPLTCGFT | -6.07 log2 (difference from the parental peptide)
6 | chain 1 EEDDYTAYAPLTCEFT | -5.52 log2 (difference from the parental peptide)
7 | chain 1 EEDDYTAYAPLTCRFT | -4.11 log2 (difference from the parental peptide)
8 | chain 1 EEDDYGAYAPLTCYFT | 2.91 log2 (difference from the parental peptide)
9 | chain 1 EEDDYNAYAPLTCYFT | 1.16 log2 (difference from the parental peptide)
10 | chain 1 EEDNYTAYAPLTCYFT | -2.63 log2 (difference from the parental peptide)
11 | chain 1 EEDLYTAYAPLTCYFT | -3.89 log2 (difference from the parental peptide)
12 | chain 1 EEDVYTAYAPLTCYFT | -4.25 log2 (difference from the parental peptide)
13 | chain 1 EEDSYTAYAPLTCYFT | -3.38 log2 (difference from the parental peptide)
14 | chain 1 AEDDYTAYAPLTCYFT | -0.519 log2 (difference from the parental peptide)
15 | chain 1 YEDDYTAYAPLTCYFT | -1.6 log2 (difference from the parental peptide)
16 | chain 1 QEDDYTAYAPLTCYFT | -0.262 log2 (difference from the parental peptide)
17 | chain 1 EEDDYTAYAPLTPYFT | -9.17 log2 (difference from the parental peptide)
18 | chain 1 EEDDYTAYAPLTYYFT | -5.99 log2 (difference from the parental peptide)
19 | chain 1 EEDDYTAYAPLTLYFT | -6.3 log2 (difference from the parental peptide)

Row | Variant | enrichment
20 | chain 1 EEPDYTAYAPLTCYFT | -2.56 log2 (difference from the parental peptide)
21 | chain 1 ESDDYTAYAPLTCYFT | -2.25 log2 (difference from the parental peptide)
22 | chain 1 EDDDYTAYAPLTCYFT | 1.08 log2 (difference from the parental peptide)
23 | chain 1 EADDYTAYAPLTCYFT | -0.79 log2 (difference from the parental peptide)
24 | chain 1 EEDDYTGYAPLTCYFT | 0.187 log2 (difference from the parental peptide)
25 | chain 1 EEDDYTIYAPLTCYFT | -0.497 log2 (difference from the parental peptide)
26 | chain 1 EEDDYTMYAPLTCYFT | 2.06 log2 (difference from the parental peptide)
27 | chain 1 EEDDYTTYAPLTCYFT | -0.191 log2 (difference from the parental peptide)
28 | chain 1 EEDDYTAYAPLTCYFL | 0.489 log2 (difference from the parental peptide)
29 | chain 1 EEDDYTAYAPLTCYFP | 1.45 log2 (difference from the parental peptide)
30 | chain 1 EEDDYTAYAPLTCYFM | 0.277 log2 (difference from the parental peptide)
31 | chain 1 EEDDYTAYAPLTCYFR | -0.298 log2 (difference from the parental peptide)
32 | chain 1 EEDDYTAYAPLTCYFH | 0.117 log2 (difference from the parental peptide)
33 | chain 1 EEDDYTAYAPLTCYFE | 0.827 log2 (difference from the parental peptide)
34 | chain 1 EEDDYTAYAPGTCYFT | -4.26 log2 (difference from the parental peptide)
35 | chain 1 EEDDYTAYAPPTCYFT | -7.67 log2 (difference from the parental peptide)
36 | chain 1 EEDDYTAYAPFTCYFT | -0.923 log2 (difference from the parental peptide)
37 | chain 1 EEDDYTAYAPETCYFT | -2.34 log2 (difference from the parental peptide)
38 | chain 1 EEDDYTAYAPSTCYFT | -0.188 log2 (difference from the parental peptide)

Row | Variant | enrichment
39 | chain 1 EEDDYTAYAPNTCYFT | -3.21 log2 (difference from the parental peptide)
40 | chain 1 EEDDYTAYAPLECYFT | -1.15 log2 (difference from the parental peptide)
41 | chain 1 EEDDYTAYHPLTCYFT | -6.2 log2 (difference from the parental peptide)
42 | chain 1 EEDDYTAYWPLTCYFT | -3.72 log2 (difference from the parental peptide)
43 | chain 1 EEDDYTAYTPLTCYFT | -2.45 log2 (difference from the parental peptide)
44 | chain 1 EEDDYTAYIPLTCYFT | -7.98 log2 (difference from the parental peptide)
45 | chain 1 EEDDYTAYSPLTCYFT | -0.615 log2 (difference from the parental peptide)
46 | chain 1 EEDDYTAYEPLTCYFT | 0.657 log2 (difference from the parental peptide)
47 | chain 1 EEDDETAYAPLTCYFT | -2.05 log2 (difference from the parental peptide)
48 | chain 1 EEDDRTAYAPLTCYFT | -5.62 log2 (difference from the parental peptide)
49 | chain 1 EEDDTTAYAPLTCYFT | -4.65 log2 (difference from the parental peptide)
50 | chain 1 EEDDVTAYAPLTCYFT | -5.67 log2 (difference from the parental peptide)
51 | chain 1 EEDDYTAYATLTCYFT | -7.43 log2 (difference from the parental peptide)
52 | chain 1 EEDDYTAYAGLTCYFT | -6.62 log2 (difference from the parental peptide)
53 | chain 1 EEDDYTAAAPLTCYFT | -1.67 log2 (difference from the parental peptide)
54 | chain 1 EEDDYTAWAPLTCYFT | -0.806 log2 (difference from the parental peptide)
55 | chain 1 EEDDYTAIAPLTCYFT | -7.37 log2 (difference from the parental peptide)
56 | chain 1 EEDDYTAFAPLTCYFT | 0.697 log2 (difference from the parental peptide)

Source: paper PMC11969024 (2025)
